Reference: US20120322150A1 (CARNEGIE INSTITUTION OF WASHINGTON, published 2012)

T1: nYFP-AtSK12 (Arabidopsis, UniProt P43289 1-409)
T1 construct: BiFC construct in transgenic Arabidopsis; not shown: N-terminal half of YFP (nYFP)
T1 sequence (looked up): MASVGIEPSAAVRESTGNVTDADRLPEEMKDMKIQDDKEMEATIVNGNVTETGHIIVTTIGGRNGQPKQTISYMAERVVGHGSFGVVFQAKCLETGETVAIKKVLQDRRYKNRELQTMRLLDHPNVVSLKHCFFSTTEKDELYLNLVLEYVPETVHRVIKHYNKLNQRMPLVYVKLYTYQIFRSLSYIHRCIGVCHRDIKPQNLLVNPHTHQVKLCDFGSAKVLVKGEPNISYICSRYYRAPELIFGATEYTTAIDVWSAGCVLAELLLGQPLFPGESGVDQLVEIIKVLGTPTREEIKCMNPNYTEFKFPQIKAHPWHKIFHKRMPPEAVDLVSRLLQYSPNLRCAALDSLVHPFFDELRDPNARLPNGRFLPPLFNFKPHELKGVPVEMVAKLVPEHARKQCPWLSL

T2: nYFP-BIN2 (Arabidopsis, UniProt Q39011 1-380)
T2 construct: BiFC construct in transgenic Arabidopsis, crossed to BZR1-cYFP plants; not shown: N-terminal half of YFP (nYFP)
T2 sequence (looked up): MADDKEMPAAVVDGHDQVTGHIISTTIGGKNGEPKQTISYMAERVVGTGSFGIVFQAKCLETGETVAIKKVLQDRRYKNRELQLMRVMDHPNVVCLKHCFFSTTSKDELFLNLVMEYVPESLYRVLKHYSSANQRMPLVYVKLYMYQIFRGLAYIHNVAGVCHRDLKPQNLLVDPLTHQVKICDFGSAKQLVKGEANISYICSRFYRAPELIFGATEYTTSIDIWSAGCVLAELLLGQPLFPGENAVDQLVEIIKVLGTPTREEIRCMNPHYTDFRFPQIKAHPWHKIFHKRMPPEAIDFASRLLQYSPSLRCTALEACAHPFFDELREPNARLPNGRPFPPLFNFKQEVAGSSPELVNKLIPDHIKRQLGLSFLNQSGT

B1: BZR1-cYFP (other, Arabidopsis, UniProt Q8S307 1-336, looked up)
chain: MTSDGATSTSAAAAAAAAAAARRKPSWRERENNRRRERRRRAVAAKIYTGLRAQGDYNLPKHCDNNEVLKALCVEAGWVVEEDGTTYRKGCKPLPGEIAGTSSRVTPYSSQNQSPLSSAFQSPIPSYQVSPSSSSFPSPSRGEPNNNMSSTFFPFLRNGGIPSSLPSLRISNSCPVTPPVSSPTSKNPKPLPNWESIAKQSMAIAKQSMASFNYPFYAVSAPASPTHRHQFHTPATIPECDESDSSTVDSGHWISFQKFAQQQPFSASMVPTSPTFNLVKPAPQQMSPNTAAFQEIGQSSEFKFENSQVKPWEGERIHDVGMEDLELTLGNGKARG
notes: BiFC construct in transgenic Arabidopsis; not shown: C-terminal half of YFP (cYFP)
B2: GST-BSK1 phosphorylated by GST-BRI1-K (enzyme, Arabidopsis, UniProt Q944A7 1-512, looked up)
chain: MGCCQSLFSGDNPLGKDGVQPQPLSQNNHGGATTADNGGSGGASGVGGGGGGGGIPSFSEFSFADLKAATNNFSSDNIVSESGEKAPNLVYKGRLQNRRWIAVKKFTKMAWPEPKQFAEEAWGVGKLRHNRLANLIGYCCDGDERLLVAEFMPNDTLAKHLFHWENQTIEWAMRLRVGYYIAEALDYCSTEGRPLYHDLNAYRVLFDEDGDPRLSCFGLMKNSRDGKSYSTNLAYTPPEYLRNGRVTPESVTYSFGTVLLDLLSGKHIPPSHALDMIRGKNIILLMDSHLEGKFSTEEATVVVELASQCLQYEPRERPNTKDLVATLAPLQTKSDVPSYVMLGIKKQEEAPSTPQRPLSPLGEACSRMDLTAIHQILVMTHYRDDEGTNELSFQEWTQQMKDMLDARKRGDQSFREKDFKTAIDCYSQFIDVGTMVSPTVFGRRSLCYLLCDQPDAALRDAMQAQCVYPDWPTAFYMQSVALAKLNMNTDAADMLNEAAQLEEKRQRGGRGS
modifications: phosphorylated by BRI1 kinase domain in vitro; phospho-Ser230 as the site named
notes: GST-BSK1 incubated with GST-BRI1-K and 100 uM ATP for 2 hrs before SDS-PAGE; also called phosphorylated BSK1; not shown: GST (glutathione S-transferase) tag

What was measured:
nYFP-AtSK12 = target: T1, nYFP-AtSK12; test: BiFC in Arabidopsis seedlings, epidermal cells
Method: (§1) FIGS. 5A-5G show regulation of the BIN2 homolog, AtSK12 BSU1-mediated tyrosine dephosphorylation. […] Activation domain (AD) fused AtSKs were transformed into the cells containing DNA binding domain (BD) fused BZR1. Yeast clones were grown on Synthetic Dropout (SD) or SD-Histidine medium. […] Transgenic Arabidopsis plants expressing nYFP-BIN2, nYFP-AtSK12 and nYFP-AtSK12-cd (C-terminal 29 amino acid deletion) were crossed to BZR1-cYFP plants, respectively. The seedlings of F1 generation were grown in white light for 7 days and YFP signals of epidermal cells were observed. […] GST-AtSK12 was incubated with MBP-BZR1 and ³²P-γATP. CBB indicates Coomassie brilliant blue-stained gel. […] Homozygous plants expressing AtSK12-myc were treated with 0.25 MM BL for 30 min. Proteins immunoprecipitated by anti-myc antibodies were blotted onto nitrocellulose membrane and probed by anti-myc antibody. […] (h) BR induces pTyr dephosphorylation of AtSK12. Homozygous AtSK12-myc plants were pretreated with 10 μM MG132 and then treated with 0.25 μM BL (+BL) or mock solution (−BL). […]
(§2) Transformation by Agrobacterium infiltration, observations of subcellular localization and BiFC signal in tobacco or Arabidopsis were performed as described previously 5. Fluorescence of YFP was visualized by using a spinning-disk confocal microscope (Leica Microsystems, Heerbruag, Germany).

nYFP-BIN2 = target: T2, nYFP-BIN2; test: BiFC in Arabidopsis seedlings, epidermal cells
Method: as §1, §2

MBP-BSU1 = target: T3, MBP-BSU1 (Arabidopsis, UniProt Q9LR78 1-793); test: overlay blot with MBP-BSU1 after incubation of GST-BSK1 with GST-BRI1-K
T3 construct: Recombinant fusion used as probe in overlay (far-western) blots and in phosphatase assays; also called BSU1 from E. coli
T3 sequence (Q9LR78 whole entry, the tested form may be a part): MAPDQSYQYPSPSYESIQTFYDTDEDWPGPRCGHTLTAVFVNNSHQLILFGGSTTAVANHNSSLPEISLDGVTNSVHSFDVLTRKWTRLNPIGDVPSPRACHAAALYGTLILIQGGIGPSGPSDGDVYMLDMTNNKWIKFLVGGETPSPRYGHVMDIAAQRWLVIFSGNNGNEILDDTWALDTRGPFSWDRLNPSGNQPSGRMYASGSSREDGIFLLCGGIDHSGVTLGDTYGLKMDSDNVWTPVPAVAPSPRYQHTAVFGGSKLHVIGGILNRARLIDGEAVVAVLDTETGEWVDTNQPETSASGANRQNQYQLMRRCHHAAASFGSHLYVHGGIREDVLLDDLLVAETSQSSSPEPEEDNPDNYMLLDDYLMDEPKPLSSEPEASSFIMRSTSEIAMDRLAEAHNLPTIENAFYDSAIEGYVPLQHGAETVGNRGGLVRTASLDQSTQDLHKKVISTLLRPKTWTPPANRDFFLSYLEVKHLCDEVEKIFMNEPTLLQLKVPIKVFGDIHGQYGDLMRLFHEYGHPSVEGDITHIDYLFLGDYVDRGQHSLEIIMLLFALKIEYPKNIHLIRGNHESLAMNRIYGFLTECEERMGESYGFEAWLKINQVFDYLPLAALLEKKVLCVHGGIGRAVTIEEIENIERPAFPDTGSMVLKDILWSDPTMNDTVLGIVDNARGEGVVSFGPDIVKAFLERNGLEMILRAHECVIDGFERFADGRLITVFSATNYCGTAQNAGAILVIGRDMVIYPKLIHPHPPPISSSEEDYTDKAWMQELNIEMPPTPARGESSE
Method: Total protein extracts obtained from Arabidopsis plants (F1) expressing BSU1 -YFP or co-expressing BSU1-YFP and BSK1-myc were immunoprecipitated with anti-myc, and the immunoblot was probed with anti-GFP and anti-myc antibody. […] GST-BSK1 or GST-BSK1 S230A was incubated with GST-BRI1-K or GST for 2 hrs. […] In the presence of BR (+BR), BR binding to the extracellular domain of BRI1 induces dissociation of BKI1 and association and inter-activation between BRI1 and BAKI. Activated BRI1 then phosphorylates BSK1, which in turn dissociates from the receptor complex and interacts with and presumably activate BSU1. BSU1 inactivates BIN2 by dephosphorylating its pTyr200, allowing accumulation of unphosphorylated BZR1/2, likely with help of a phosphatase that is yet to be identified. Unphosphorylated BZR1/2 accumulate in the nucleus and alter the expression of BR-target genes, leading to cellular and developmental responses. While individual representative protein is shown for each function, in Arabidopsis most of these components have about 2 to 5 homologous proteins (paralogs) that can contribute to the same or similar signaling function.
To test interaction of BSU1 with BIN2 or bin2-1 in vitro, a gel blot separating GST, GST-BIN2, GSTbin2-1 was incubated with 20 μg MBP-BSU1 in 5% non-fat dry milk/PBS buffer and washed four times. The blot was then probed with a polyclonal anti-MBP antibody. […]

Binder	binding result (nYFP-AtSK12)	binding result (nYFP-BIN2)	binding result (MBP-BSU1)
B1	binds	binds	
B2			binds
